Laboratory results as given in US20190367620A1.
Values belong to the binder of their own block, whether it stands above or below them.

Key:
[1] = target: human FGFR1 (His-tagged FGFR1b-IIIb or FGFR1b-IIIc; isoform not told at that place) (human) (UniProt P11362); assay: ELISA on coated human FGFR1b (IIIb or IIIc not told)
[2] = target: human FGFR1 (His-tagged FGFR1b-IIIb or FGFR1b-IIIc; isoform not told at that place) (human) (UniProt P11362); assay: ELISA on coated human FGFR1b (IIIb or IIIc not told), IgG1 format
[3] = target: T1, FGFR1 D2 point mutant K60A (human), P11362; assay: SPR; free energy change relative to wild-type D2; details: remark: other sources report otherwise
T1 chain: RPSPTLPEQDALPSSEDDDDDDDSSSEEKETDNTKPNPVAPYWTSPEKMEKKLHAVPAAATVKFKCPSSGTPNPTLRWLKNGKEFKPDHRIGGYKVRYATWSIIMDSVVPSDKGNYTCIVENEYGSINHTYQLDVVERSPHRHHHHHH

[4] = target: T2, FGFR1 D2 point mutant K63A (human), P11362; assay: SPR; free energy change relative to wild-type D2; details: remark: other sources report otherwise
T2 chain: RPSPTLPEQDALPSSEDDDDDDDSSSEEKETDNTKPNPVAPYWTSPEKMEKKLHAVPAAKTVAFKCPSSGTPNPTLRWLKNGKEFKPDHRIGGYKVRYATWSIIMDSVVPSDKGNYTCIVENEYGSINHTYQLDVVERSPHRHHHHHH

[5] = target: T3, FGFR1 D2 point mutant K95A (human), P11362; assay: SPR; free energy change relative to wild-type D2; details: remark: other sources report otherwise
T3 chain: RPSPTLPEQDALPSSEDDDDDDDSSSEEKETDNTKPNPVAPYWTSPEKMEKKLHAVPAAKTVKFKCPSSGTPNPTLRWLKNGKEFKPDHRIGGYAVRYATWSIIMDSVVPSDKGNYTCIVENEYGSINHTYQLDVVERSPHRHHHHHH

[6] = target: T4, FGFR1 D2 point mutant T61A (human), P11362; assay: SPR; free energy change relative to wild-type D2; details: remark: other sources report otherwise
T4 chain: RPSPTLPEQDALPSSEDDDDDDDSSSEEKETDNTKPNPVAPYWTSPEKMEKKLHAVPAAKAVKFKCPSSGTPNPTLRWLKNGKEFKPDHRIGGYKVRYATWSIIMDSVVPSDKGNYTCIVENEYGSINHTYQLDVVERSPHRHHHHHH

huFGFR1a-IIIc (human) = huFGFR1a-IIIc (human) (UniProt P11362); assay: SPR (Biacore 4000), antibody captured, His-tagged FGFR1 injected; no unit in the table, nM inferred from paragraph 90
[7] = target: T1, FGFR1 D2 point mutant K60A (human), …; assay: SPR as in Example 1.8; details: remark: other sources report otherwise
[8] = target: T2, FGFR1 D2 point mutant K63A (human), …; assay: SPR as in Example 1.8; details: remark: other sources report otherwise
[9] = target: T3, FGFR1 D2 point mutant K95A (human), …; assay: SPR as in Example 1.8; details: remark: other sources report otherwise
[10] = target: T4, FGFR1 D2 point mutant T61A (human), …; assay: SPR as in Example 1.8; details: remark: other sources report otherwise

Chain of huFGFR1a-IIIc (human) (P11362 22-376): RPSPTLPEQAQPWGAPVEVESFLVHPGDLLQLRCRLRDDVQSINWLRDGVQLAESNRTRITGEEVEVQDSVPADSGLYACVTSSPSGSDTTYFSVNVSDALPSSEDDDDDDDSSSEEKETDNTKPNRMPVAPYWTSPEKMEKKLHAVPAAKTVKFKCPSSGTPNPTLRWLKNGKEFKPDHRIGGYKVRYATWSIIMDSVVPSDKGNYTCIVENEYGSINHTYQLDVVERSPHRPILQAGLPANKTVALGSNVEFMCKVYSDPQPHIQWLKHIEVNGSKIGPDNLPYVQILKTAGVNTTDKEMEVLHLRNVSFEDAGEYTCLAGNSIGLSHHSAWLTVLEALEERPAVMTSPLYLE

- EC50 [1]: 0.015 nM
B1: mAb #D01 IgG1 (antibody, V domains shown)
VH: QVQLQESGPGLVKPSGTLSLTCAVSGGSISSNNWWSWVRQPPGKGLEWIGEIYHSGSTSYNPSLKSRVTISVDKSKNQFSLKLSSVTAADTAVYYCARATDWFDHWGQGTLVTVSS
VL: SYVLTQPPSVSVAPGQTARITCGGNNIGSESVHWYQQKPGQAPVLVVYDDSDRPSGIPERFSGSNSGNTATLTISRVEAGDEADYYCQVWDSTSDHRVFGGGTKLTVLG

- EC50 [2]: 0.008 nM
B2: #A08 IgG1 (standard IgG1 built from the #A08 lead heavy and light chains) (antibody, V domains shown)
VH: EVQLQESGPGLVKPSGTLSLTCAVSGGSISSNNWWSWVRQPPGKGLEWIGEIYHSGSTSYNPSLKSRVTISVDKSKNQFSLKLSSVTAADTAVYYCARGTDWFDPWGQGTLVTVSS
VL: SYVLTQPPSVSVAPGQTARITCGGNNIGSESVHWYQQKPGQAPVLVVYDDSDRPSGIPERFSGSNSGNTATLTISRVEAGDEADYYCQVWDSTSDHRVFGGGTKLTVLG

- ΔΔGmut [3]: 10.5 kJ/mol
- ΔΔGmut [4]: 10.6 kJ/mol
- ΔΔGmut [5]: 8.45 kJ/mol
- ΔΔGmut [6]: 8.45 kJ/mol
- Kd (huFGFR1a-IIIc (human)): 0.7 nM
- Kd [7]: 13.4 nM
- Kd [8]: 13.9 nM
- Kd [9]: 5.86 nM
- Kd [10]: 5.89 nM
B3: mAb #A08 (antibody, V domains shown)
VH: EVQLQESGPGLVKPSGTLSLTCAVSGGSISSNNWWSWVRQPPGKGLEWIGEIYHSGSTSYNPSLKSRVTISVDKSKNQFSLKLNSVTAADTAVYYCARGTDWFDPWGQGTLVTVSS
VL: QAVLTQPPSVSVAPGQTARITCGGNNIGSESVHWYQQKPGQAPVLVVYDDSDRPSGIPERFSGSNSGNTATLTISRVEAGDEADYYCQVWDSTSDHRVFGGGTKLTVL
